Stoichiometry N data for 1 substance are collected here from PMC6546705.

This assay concerns the target recombinant MnSOD-WT (manganese superoxide dismutase, wild type) (UniProt P04179). The assay is described as follows: SEC; Superdex 200 Increase 10/300 GL, 50 mM potassium phosphate pH 7.8; size from a calibration curve of gel filtration standards.

As to “recombinant MnSOD-WT (manganese superoxide dismutase, wild type) (from UniProt P04179 25-222) (enzyme)”, the stoichiometry N came to 4.
